Assay results reported in patent publication US20220056094A1 (JIANGSU HENGRUI MEDICINE, published 2022).
Like-named read-outs stand apart in the source and are kept apart here.

T1: high-affinity receptor IL-2Rα/β/γ on CTLL2 cells (mouse-derived cell line) (mouse, UniProt P01590 22-268; P16297 27-539; P34902 23-369)
T1 sequence (looked up) 1: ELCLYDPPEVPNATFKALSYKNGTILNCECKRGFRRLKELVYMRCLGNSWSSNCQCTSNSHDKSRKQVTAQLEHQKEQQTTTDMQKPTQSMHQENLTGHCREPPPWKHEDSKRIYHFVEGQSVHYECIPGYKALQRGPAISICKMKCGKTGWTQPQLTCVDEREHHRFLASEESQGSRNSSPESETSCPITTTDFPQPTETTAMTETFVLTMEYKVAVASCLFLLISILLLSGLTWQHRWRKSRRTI
T1 sequence (looked up) 2: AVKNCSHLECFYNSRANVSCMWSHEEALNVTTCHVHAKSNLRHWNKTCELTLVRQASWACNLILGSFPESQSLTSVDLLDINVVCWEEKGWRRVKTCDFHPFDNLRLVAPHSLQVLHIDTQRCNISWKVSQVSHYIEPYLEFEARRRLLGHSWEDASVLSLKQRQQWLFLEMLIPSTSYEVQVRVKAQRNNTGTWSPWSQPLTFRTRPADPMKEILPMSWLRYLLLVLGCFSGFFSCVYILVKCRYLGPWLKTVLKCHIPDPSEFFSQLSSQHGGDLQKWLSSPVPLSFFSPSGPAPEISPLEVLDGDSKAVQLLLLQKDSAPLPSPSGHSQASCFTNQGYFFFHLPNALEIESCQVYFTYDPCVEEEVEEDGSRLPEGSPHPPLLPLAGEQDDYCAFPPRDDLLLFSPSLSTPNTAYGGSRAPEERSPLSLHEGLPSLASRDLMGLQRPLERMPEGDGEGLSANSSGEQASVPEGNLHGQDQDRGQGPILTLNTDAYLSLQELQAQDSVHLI
T1 sequence (looked up) 3: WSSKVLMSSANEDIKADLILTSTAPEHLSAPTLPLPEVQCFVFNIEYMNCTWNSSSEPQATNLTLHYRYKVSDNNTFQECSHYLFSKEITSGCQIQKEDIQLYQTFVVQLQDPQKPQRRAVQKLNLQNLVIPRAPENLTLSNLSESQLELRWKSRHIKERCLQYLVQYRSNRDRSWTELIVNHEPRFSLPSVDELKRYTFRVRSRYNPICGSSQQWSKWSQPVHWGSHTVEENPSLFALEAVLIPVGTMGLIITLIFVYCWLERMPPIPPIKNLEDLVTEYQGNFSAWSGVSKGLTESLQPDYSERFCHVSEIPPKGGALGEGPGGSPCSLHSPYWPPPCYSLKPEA

T2: his-tagged human IL-2Rα recombinant protein (SinoBiological, Cat #10165-H08H) (human, UniProt P01589 22-213)
T2 construct: Bought protein; also called IL-2Rα (His Tag)
T2 sequence: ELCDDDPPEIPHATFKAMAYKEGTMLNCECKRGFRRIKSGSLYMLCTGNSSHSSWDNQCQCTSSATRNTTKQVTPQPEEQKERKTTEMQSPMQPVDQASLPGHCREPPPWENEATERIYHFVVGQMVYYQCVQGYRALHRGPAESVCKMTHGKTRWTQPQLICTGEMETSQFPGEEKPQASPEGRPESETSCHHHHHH

T3: medium-affinity receptor IL-2Rβ/γ on human cells (Mo7e cell line; human CD8+T and NK cells) (human, UniProt P14784 27-551; P31785 23-369)
T3 sequence (looked up) 1: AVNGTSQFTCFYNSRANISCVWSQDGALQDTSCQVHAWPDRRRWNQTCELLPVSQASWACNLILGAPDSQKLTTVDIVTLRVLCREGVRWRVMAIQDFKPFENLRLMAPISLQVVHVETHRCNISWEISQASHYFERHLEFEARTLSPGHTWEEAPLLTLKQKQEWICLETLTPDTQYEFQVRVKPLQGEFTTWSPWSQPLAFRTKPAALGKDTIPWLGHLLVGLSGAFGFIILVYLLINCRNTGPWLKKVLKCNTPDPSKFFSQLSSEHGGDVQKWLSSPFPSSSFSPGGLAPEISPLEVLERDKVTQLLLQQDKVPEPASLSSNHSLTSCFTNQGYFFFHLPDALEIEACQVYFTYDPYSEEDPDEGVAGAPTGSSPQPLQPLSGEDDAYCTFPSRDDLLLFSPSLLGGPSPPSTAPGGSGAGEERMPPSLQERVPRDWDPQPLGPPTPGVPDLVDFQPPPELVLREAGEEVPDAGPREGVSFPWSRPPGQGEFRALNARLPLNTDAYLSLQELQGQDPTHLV
T3 sequence (looked up) 2: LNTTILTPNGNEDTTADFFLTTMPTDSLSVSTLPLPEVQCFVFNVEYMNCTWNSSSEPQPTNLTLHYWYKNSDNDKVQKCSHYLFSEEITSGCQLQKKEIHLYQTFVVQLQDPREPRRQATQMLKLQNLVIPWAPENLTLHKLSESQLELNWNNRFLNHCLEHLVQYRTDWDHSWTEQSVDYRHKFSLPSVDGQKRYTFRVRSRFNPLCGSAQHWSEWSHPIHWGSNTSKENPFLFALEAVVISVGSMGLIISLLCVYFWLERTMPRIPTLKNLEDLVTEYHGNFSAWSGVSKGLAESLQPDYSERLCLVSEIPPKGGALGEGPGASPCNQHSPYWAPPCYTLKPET

T4: IL-2 receptor IL-2Rα/β/γ on human peripheral blood Treg cells (human, UniProt P01589 22-272; P14784 27-551; P31785 23-369)
T4 sequence (looked up) 1: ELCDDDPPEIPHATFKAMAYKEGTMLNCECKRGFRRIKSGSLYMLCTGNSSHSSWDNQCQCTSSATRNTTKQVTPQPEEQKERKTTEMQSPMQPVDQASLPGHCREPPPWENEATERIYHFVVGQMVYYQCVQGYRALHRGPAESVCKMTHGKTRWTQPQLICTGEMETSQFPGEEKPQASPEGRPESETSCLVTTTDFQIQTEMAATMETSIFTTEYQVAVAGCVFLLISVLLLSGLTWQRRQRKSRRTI
T4 sequence (looked up) 2: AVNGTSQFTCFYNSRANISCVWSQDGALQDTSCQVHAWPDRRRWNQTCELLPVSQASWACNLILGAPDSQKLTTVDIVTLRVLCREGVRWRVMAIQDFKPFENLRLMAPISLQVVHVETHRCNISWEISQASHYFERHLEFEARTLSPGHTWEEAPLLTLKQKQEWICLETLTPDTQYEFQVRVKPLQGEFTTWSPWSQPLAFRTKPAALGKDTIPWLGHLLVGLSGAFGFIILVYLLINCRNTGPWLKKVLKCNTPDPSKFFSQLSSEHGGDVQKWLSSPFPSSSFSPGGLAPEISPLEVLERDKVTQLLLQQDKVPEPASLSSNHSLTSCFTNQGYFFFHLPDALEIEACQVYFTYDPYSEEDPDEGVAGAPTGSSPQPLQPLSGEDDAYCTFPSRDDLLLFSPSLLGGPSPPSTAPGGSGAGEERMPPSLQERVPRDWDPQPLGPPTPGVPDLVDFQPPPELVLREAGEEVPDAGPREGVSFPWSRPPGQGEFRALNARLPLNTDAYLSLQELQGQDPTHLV
T4 sequence (looked up) 3: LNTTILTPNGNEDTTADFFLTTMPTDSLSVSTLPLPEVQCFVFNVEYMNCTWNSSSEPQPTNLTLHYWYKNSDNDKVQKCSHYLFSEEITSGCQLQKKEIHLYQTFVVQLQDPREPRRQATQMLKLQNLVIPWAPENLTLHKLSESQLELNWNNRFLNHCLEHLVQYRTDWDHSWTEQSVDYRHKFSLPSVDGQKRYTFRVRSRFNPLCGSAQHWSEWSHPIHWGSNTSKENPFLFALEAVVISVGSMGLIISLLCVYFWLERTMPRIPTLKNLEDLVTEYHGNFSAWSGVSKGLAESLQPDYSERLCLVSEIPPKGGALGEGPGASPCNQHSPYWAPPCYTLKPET


Tests used:
[1] = biological target: T1, high-affinity receptor IL-2Rα/β/γ on …; assay: cell-based or functional assay
[2] = biological target: T2, his-tagged human IL-2Rα recombinant …; assay: ELISA, his-tagged IL-2Rα coated, HRP anti-IL-2 polyclonal detection
Procedure: 96-well microtiter plate was coated with 2 μg/mL his-tagged IL-2Rα recombinant protein (SinoBiological, Cat #10165-H08H), and incubated overnight at 4° C. The plate was washed with washing solution for three times, 250 μl per well. For each time of washing, the plate was shaken for 10 seconds to ensure sufficient washing. 200 μl/well blocking solution was added and incubated at room temperature for 2 hours. The plate was washed with washing solution for three times, 250 μl per well. For each time of washing, the plate was shaken for 10 seconds to ensure sufficient washing. […] The plate was incubated for 1 hour at room temperature. The plate was washed with washing solution for three times, 250 μl per well. […] The plate was incubated for 1 hour at room temperature. The plate was washed with washing solution for three times, 250 μl per well. 100 μl TMB was added to each well, and the reaction was performed for 15 minutes in the dark. 50 μl of 0.16 M sulfuric acid was added to each well.

[3] = biological target: T5, IL-2Rβ/γ-Fc heterodimer (IL-2Rβ-Fc-hole with IL-2Rγ-Fc-knob); assay: SPR (Biacore), IL-2Rβ/γ-Fc captured on Protein A chip, 1:1 model
T5 construct: Co-expressed in HEK293 cells and purified with Protein A and Superdex 200
Procedure: The Protein A sensor chip (GE, Cat #29127556) of the Biacore instrument (Biacore T200, GE) was used to capture IL-2Rβ/γ-Fc, wherein IL-2Rβ/γ-Fc was diluted with 1×HBS-EP to 1 μg/mL, and flowed at a flow rate of 10 μL/min for 30 seconds. […] The Biacore instrument (Biacore X100, GE) was used to detect the reaction in real time, to obtain association and dissociation curves. After each cycle of dissociation was completed, the chip was washed and regenerated with 10 mM Gly-HCl pH 1.5.

[4] = biological target: T1, high-affinity receptor IL-2Rα/β/γ on …; assay: cell-based or functional assay; remark: listed apart in the source
[5] = biological target: T3, medium-affinity receptor IL-2Rβ/γ on …; assay: cell-based or functional assay
[6] = biological target: T4, IL-2 receptor IL-2Rα/β/γ on human …; assay: cell-based or functional assay
[7] = biological target: T1, high-affinity receptor IL-2Rα/β/γ on …; assay: cell-based or functional assay; remark: listed apart in the source

T5 sequence (chain, as listed by the source limits assumed, chain 1 of 2): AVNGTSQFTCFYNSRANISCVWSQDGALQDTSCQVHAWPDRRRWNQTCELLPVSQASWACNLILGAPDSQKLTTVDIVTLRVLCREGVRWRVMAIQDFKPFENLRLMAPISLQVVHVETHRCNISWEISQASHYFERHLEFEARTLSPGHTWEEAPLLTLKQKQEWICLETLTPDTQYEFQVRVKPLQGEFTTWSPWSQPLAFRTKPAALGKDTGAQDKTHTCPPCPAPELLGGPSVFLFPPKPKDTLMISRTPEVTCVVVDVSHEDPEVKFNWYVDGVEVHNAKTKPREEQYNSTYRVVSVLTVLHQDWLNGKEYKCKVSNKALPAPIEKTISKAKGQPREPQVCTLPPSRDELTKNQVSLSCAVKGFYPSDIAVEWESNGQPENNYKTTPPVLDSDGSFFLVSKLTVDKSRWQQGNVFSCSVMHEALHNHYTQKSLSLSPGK
T5 sequence (chain, as listed by the source limits assumed, chain 2 of 2): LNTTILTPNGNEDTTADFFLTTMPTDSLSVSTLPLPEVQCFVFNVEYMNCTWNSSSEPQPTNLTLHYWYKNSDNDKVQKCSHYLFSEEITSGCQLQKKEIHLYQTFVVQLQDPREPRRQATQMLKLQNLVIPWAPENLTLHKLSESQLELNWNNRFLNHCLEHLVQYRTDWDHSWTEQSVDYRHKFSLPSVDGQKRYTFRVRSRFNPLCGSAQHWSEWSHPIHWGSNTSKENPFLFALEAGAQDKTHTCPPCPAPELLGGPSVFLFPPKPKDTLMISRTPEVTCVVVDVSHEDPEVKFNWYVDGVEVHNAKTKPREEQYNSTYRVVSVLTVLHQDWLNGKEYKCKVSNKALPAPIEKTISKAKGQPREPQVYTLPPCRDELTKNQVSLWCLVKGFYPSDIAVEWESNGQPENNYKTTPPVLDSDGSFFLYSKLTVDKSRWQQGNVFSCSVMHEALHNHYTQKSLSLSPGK

Binder	relative biological activity (CTLL2 cell proliferation) [1]	EC50 [2]	Kd [3]	koff [3]	kon [3]	EC50 (CTLL2 cell proliferation) [4]	relative biological activity (CTLL2 cell proliferation) [4]	EC50 (Mo7e cell proliferation) [5]	relative biological activity (Mo7e cell proliferation) [5]	EC50 (STAT5 phosphorylation in human Treg cells) [6]	relative biological activity (STAT5 phosphorylation in human Treg cells) [6]	EC50 (STAT5 phosphorylation in CTLL2 cells) [7]	relative biological activity (STAT5 phosphorylation in CTLL2 cells) [7]
IL-2-03 (Q11C/L132C) (ligand, The entry already carries the mutations and C125A and begins with M. Made in E. coli) MAPTSSSTKKTCLQLEHLLLDLQMILNGINNYKNPKLTRMLTFKFYMPKKATELKHLQCLEEELKPLEEVLNLAQSKNFHLRPRDLISNINVIVLELKGSETTFMCEYADETATIVEFLNRWITFAQSIISTCT	162%	1.53 nM	0.253 nM	0.000135 s⁻¹	533000 M⁻¹ s⁻¹	–	–	–	–	–	–	–	–
IL-2-22 (N26Q/N29S/F42A/N71Q/L72G) (ligand) MAPTSSSTKKTQLQLEHLLLDLQMILQGISNYKNPKLTRMLTAKFYMPKKATELKHLQCLEEELKPLEEVLQGAQSKNFHLRPRDLISNINVIVLELKGSETTFMCEYADETATIVEFLNRWITFAQSIISTLT	–	–	–	–	–	5.73 nM	0.9%	2.84 nM	86%	–	–	–	–
PEGylated IL-2-24 (ligand, mono-PEGylated with 20 kDa mPEG-butyraldehyde (sodium cyanoborohydride); site not stated) MAPTSSSTKKTQLQLEHLLLDLQMILQGISNYKNPKLTRMLTFKFYMPKKATELKHLQCLEEELKPLEEVLNLAQSKNFHLRPRDLISRINVIVLELKGSETTFMCEYADETATIVEFLNRWITFAQSIISTLT	–	–	–	–	–	–	–	–	–	6.02 nM	0.007%	–	–
IL-2-07 (F42A/Y45A) (ligand, The entry already carries the mutations and C125A and begins with M. Made in E. coli) MAPTSSSTKKTQLQLEHLLLDLQMILNGINNYKNPKLTRMLTAKFAMPKKATELKHLQCLEEELKPLEEVLNLAQSKNFHLRPRDLISNINVIVLELKGSETTFMCEYADETATIVEFLNRWITFAQSIISTLT	4%	–	0.261 nM	0.000215 s⁻¹	822000 M⁻¹ s⁻¹	–	–	–	–	–	–	2.45 nM	0.41%
IL-2-08 (F42A/L72G) (ligand, The entry already carries the mutations and C125A and begins with M. Made in E. coli) MAPTSSSTKKTQLQLEHLLLDLQMILNGINNYKNPKLTRMLTAKFYMPKKATELKHLQCLEEELKPLEEVLNGAQSKNFHLRPRDLISNINVIVLELKGSETTFMCEYADETATIVEFLNRWITFAQSIISTLT	7%	–	0.224 nM	0.000206 s⁻¹	920000 M⁻¹ s⁻¹	–	–	–	–	–	–	3.93 nM	0.25%
IL-2-10 (N26Q/N30S/F42A/L72G) (ligand, The entry already carries the mutations and C125A and begins with M. Made in E. coli) MAPTSSSTKKTQLQLEHLLLDLQMILQGINSYKNPKLTRMLTAKFYMPKKATELKHLQCLEEELKPLEEVLNGAQSKNFHLRPRDLISNINVIVLELKGSETTFMCEYADETATIVEFLNRWITFAQSIISTLT	–	–	0.266 nM	0.00043 s⁻¹	1.62e+06 M⁻¹ s⁻¹	4.8 nM	1%	1.78 nM	137%	–	–	–	–
IL-2-09 (Y45A/L72G) (ligand, The entry already carries the mutations and C125A and begins with M. Made in E. coli) MAPTSSSTKKTQLQLEHLLLDLQMILNGINNYKNPKLTRMLTFKFAMPKKATELKHLQCLEEELKPLEEVLNGAQSKNFHLRPRDLISNINVIVLELKGSETTFMCEYADETATIVEFLNRWITFAQSIISTLT	2%	–	0.344 nM	0.000222 s⁻¹	646000 M⁻¹ s⁻¹	–	–	–	–	–	–	4.02 nM	0.25%
IL-2-06 (… at positions 29-44 mutated into QSMHIDATL) (ligand, The entry already carries the replacement and C125A and begins with M. Made in E. coli) MAPTSSSTKKTQLQLEHLLLDLQMILNGIQSMHIDATLYMPKKATELKHLQCLEEELKPLEEVLNLAQSKNFHLRPRDLISNINVIVLELKGSETTFMCEYADETATIVEFLNRWITFAQSIISTLT	4%	–	0.509 nM	0.000436 s⁻¹	856000 M⁻¹ s⁻¹	–	–	–	–	–	–	–	–
